These results are taken from PMC8993113.

This data set can be described thus: two-colour ID-FRAP, CHO-K1 large ER inclusions. The settings on record: glycan lost; control: YFP-Z coexpressed with HaloTag-CRT.

Consider “Z-α1-antitrypsin: YFP-ZN46A,N83A,N247A (GlycMut)”, for which the “other: calreticulin-driven immobilisation in ER inclusions, other: % cells with immobile YFP-Z” value is reported as “abolishes”.
